Tests used:
[1] = target: T1, human CD4, cell-expressed (human, UniProt P01730 26-458); assay: cell-based or functional assay
[2] = target: T2, human CXCR4 (on cells, membrane extracts or viral lipoparticles) (human, UniProt P61073 1-352); assay: ELISA, hCXCR4 VLPs
T2 construct: whole, on cells; see assay; also called hCXCR4 VLPs; CXCR4-VLP

[3] = target: CXCR4 and CD4 co-expressed on cells (human, UniProt P61073 1-352; P01730 26-458); assay: cell-based or functional assay
[4] = target: T3, IL12Rβ2-Fc (human, UniProt Q99665 24-622); assay: SPR and competition ELISA, against IL12Rb2#1
T3 construct: extracellular domain; bought; also called hIL-12Rβ2-Fc; Fc-fusion of human IL12Rβ2 extracellular domain (R&D Systems #1959-B2)
T3 sequence (looked up): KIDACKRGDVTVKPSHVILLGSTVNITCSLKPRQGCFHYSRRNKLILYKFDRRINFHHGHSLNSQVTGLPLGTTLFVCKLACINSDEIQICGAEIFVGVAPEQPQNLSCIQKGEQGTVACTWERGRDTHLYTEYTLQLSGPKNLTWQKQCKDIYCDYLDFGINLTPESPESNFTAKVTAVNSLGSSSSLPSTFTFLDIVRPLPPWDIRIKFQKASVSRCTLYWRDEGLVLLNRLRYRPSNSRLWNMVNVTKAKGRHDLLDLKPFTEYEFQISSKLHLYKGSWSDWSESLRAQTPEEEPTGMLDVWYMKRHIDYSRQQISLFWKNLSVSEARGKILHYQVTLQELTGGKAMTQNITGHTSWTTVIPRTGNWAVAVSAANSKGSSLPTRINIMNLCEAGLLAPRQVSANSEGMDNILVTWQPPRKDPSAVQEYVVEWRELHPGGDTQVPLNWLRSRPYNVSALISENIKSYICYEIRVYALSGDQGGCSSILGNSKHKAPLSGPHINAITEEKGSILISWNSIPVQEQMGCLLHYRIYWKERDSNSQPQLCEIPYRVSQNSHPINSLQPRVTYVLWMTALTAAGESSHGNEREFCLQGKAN

[5] = target: T4, IL23R, cell-expressed on human T cells (human, UniProt Q5VWK5 24-629); assay: cell-based or functional assay
T4 sequence (looked up): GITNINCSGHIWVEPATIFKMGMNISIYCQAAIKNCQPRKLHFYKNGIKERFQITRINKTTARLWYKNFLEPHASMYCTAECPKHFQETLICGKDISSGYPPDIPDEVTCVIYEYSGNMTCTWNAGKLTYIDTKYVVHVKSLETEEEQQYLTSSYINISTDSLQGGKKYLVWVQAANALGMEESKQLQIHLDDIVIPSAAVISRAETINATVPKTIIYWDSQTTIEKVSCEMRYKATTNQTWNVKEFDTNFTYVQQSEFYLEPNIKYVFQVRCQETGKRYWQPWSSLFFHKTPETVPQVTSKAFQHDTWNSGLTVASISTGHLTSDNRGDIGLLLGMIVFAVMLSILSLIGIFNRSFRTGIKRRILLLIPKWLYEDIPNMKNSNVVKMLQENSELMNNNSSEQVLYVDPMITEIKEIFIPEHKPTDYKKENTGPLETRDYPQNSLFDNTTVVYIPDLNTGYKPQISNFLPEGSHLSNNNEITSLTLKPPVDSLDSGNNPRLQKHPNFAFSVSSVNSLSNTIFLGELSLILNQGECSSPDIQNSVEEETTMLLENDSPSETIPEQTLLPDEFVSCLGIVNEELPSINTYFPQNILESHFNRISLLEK

[6] = target: T1, human CD4, cell-expressed; assay: FACS, MOLM-13 cells

CXCR4 and CD4 co-expressed on cells, sequence (P61073 whole entry, chain 1 of 2, other chains not shown): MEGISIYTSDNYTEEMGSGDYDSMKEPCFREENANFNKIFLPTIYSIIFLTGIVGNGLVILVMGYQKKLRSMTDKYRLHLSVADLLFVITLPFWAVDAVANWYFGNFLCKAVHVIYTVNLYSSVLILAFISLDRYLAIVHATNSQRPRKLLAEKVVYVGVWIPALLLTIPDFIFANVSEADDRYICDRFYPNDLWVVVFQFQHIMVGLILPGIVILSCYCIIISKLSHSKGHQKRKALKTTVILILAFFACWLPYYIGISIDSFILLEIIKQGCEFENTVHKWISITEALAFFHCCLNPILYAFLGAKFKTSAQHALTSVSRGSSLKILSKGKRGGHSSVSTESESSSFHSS
T2 sequence (P61073 whole entry): as the sequence (P61073 whole entry, chain 1 of 2, other chains not shown) above

B1: 03F11 (CD4#8, Table 10) (VHH)
VHH: EVQLVESGGGSVQPGGSLTLSCGTSGRTFNVMGWFRQAPGKEREFVAAVRWSSTGIYYTQYADSVKSRFTISRDNAKNTVYLEMNSLKPEDTAVYYCAADTYNSNPARWDGYDFRGQGTQVTVSS
[1]
  IC50, HIV-1 BaL(R5) in PBMC: 610 nM

B2: 281F12-25GS-03F11 (bispecific antibody)
chain: EVQLVESGGGLVQAGDSLRLSCAASGRAFSRYAMGWFRQAPGKEREFVAAIGWGPSKTNYADSVKGRFTISRDNAKNTVYLQMNTLKPEDTAVYSCAAKFVNTDSTWSRSEMYTYWGQGTQVTVSSGGGGSGGGGSGGGGSGGGGSGGGGSEVQLVESGGGSVQPGGSLTLSCGTSGRTFNVMGWFRQAPGKEREFVAAVRWSSTGIYYTQYADSVKSRFTISRDNAKNTVYLEMNSLKPEDTAVYYCAADTYNSNPARWDGYDFRGQGTQVTVSS
notes: also called CXCR4#2-25GS-CD4#8
[2]
  binding result: binds
[3]
  IC50, HIV-1 NL 4.3(X4) in MT-4: 0.21 nM
  IC50, HIV-1 NL 4.3(X4) in PBMC: 0.12 nM
  IC50, HIV-1 NL 4.3 (X4) in U87: 2.67 nM

B3: IL12Rb2#2: 135A07 (VHH)
VHH: EVQLVESGGRLVQAGDSLRLSCAASGRTFTSYRMGWFRQAPGKEREFVSALRWSSGNIDYTYYADSVKGRFSISGDYAKNTVYLQMNSLKAEDTAVYYCAASTRWGVMESDTEYTSWGQGTLVTVSS
notes: also called LG135A07; IL12Rβ2#2
[4]
  fold difference in KD and ligand competition between the family members: 3.5 fold

B4: IL23R#19-CD4#8 (bispecific antibody)
chain: EVQLVESGGGLVQPGGSLTLSCVASGRTFSTDVMGWFRQAPGKEREFVAAHRTSGISTVYAASVKGRFTISRDNAKNTVYLGMKSLKPEDTAVYVCAAGSDASGGYDYWGQGTLVTVSSGGGGSGGGGSGGGGSGGGGSGGGGSGGGGSGGGGSEVQLVESGGGSVQPGGSLTLSCGTSGRTFNVMGWFRQAPGKEREFVAAVRWSSTGIYYTQYADSVKSRFTISRDNAKNTVYLEMNSLKPEDTAVYYCAADTYNSNPARWDGYDFRGQGTLVTVSS
notes: also called BI#42; T023200042
[5]
  IC50, IL-17 release PBMC D840: 58.9 nM
  fold ctrl, IL-17 release PBMC D840: 1.7 fold
[6]
  binding result: binds

Source: US20220242958A1 (published 2022)
